± gives the half width of the 95% confidence interval.
Assays:
[1] = folding stability dG unfold from trypsin proteolysis; higher = more stable
Method in brief: (§1)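 Sequencing followed digestion of designed mini-proteins with trypsin and chymotrypsin, each at 11 concentrations in threefold dilutions together with a no-protease condition. The mini-proteins were under 80 residues, had no cysteine, sat in a PA-tagged cDNA display construct, and were kept only if AlphaFold2 dimer inter-PAE was above 15. From the counts, Bayesian fitting gave K50, and unfolding free energy was derived against a sequence-predicted unfolded-state K50 and a shared folded-state K50, per protease or combined.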

[2] = folding stability dG unfold (combined trypsin and chymotrypsin); higher = more stable
Method in brief: as §1

[3] = folding stability dG unfold from chymotrypsin proteolysis; higher = more stable
Method in brief: as §1

| Sequence | folding stability dG unfold [1] [kcal/mol] | folding stability dG unfold [2] [kcal/mol] | folding stability dG unfold [3] [kcal/mol] |
| --- | --- | --- | --- |
| SAMKTETITVPGLKIEVTENKDGKKTIKITAATPEQAEEWLKKNPELRKLIEELEKAGYKVEITVLPPPSAG [r14_873_TrROS_Hall] | 3.4 ± 0.17 | 3.01 ± 0.049 | 2.83 ± 0.051 |
| SAMKVEPFTFKVTFKVPVLNPETGEATEEGVEAEVVVYRSDDGTLYVVAFVKFENGKTAVFPFTIDKDGSAG [r14_50_TrMRF] | 3.19 ± 0.1 | 3.59 ± 0.064 | 3.781 ± 0.029 |
| SAMLGAEELVRRIAEEIERRLGVPAGFDVPVRVYRPEDALVIDAYIVARGPDGEPLGERRITLVLRPEDSAG [r14_708_TrMRF] | 1.94 ± 0.032 | 2.93 ± 0.11 | 3.49 ± 0.051 |
| SAMLSPAEIKRPRLLEIIETIKKLGNFSVDIKRLPGDGDVKVKIELDPNKIEEAAKITGIPLSEIKKLVSAG [r14_688_JUSTAS] | 0.923 ± 0.15 | 0.673 ± 0.31 | 0.748 ± 0.1 |
| SAMLVITRPDGRPYLVRLKVDKVEPSPDGTLITVEFTLELFSPDGTPETFKGTLIFDPKTGKLVLKIDPSAG [r14_789_TrMRF] | 2.83 ± 0.056 | 3.42 ± 0.075 | 3.71 ± 0.014 |
| SAMLVVELEVDLPELKYMTPEEAEEIAEALAVEAAKELFPESDVKVKEVVVEPEPETGKLKVTVVLENESAG [r14_310_TrMRF] | 2.18 ± 0.13 | 2.46 ± 0.081 | 2.51 ± 0.048 |
| SAMNLKTFKIEVPDGKIFTIPPNYKAEIVEYDPEKGVVTIKLTAYETNPLKEVEKKEFSFKFKFLEEFPSAG [r14_927_TrMRF] | 1.181 ± 0.011 | 1.46 ± 0.086 | 1.62 ± 0.082 |
| SAMNTRTVTLTIERPPGSPETLEAVRARLAALGFTVTSESEEVLPDESLTRVTLTVEDPGVPETLLALLSAG [r14_956_JUSTAS] | 1.65 ± 0.021 | 1.91 ± 0.06 | 2.03 ± 0.057 |
| SAMPIDITVEGVERPPDSVVVHLRLDPSVPSDLAVTVKVRGADGTVLEVPAEDRTATLRVPSSDVVVDLSAG [r14_350_JUSTAS] | 0.387 ± 0.11 | 0.78 ± 0.16 | 0.912 ± 0.24 |
| SAMPLLVKVTFYPKDPVTGIPSEEIEEKEVPDIEEAIKEVKKKLPKDNSAKIEVLDENGKLLKTIDLNLSAG [r14_234_JUSTAS] | 0.721 ± 0.029 | 0.845 ± 0.12 | 0.885 ± 0.11 |
| SAMPVLVVIKRTVVLPRPGEELAKYEDPDGKVRRRVVVETLVVEVNPEDLPELVEFFKSLGIDEISVFGSAG [r14_509_TrMRF] | 2.18 ± 0.039 | 2.13 ± 0.11 | 2.22 ± 0.031 |
| SAMRFVVRVEGDLEEVERALREEFDFEMEAEREEDGRLVVVVEAEPEELERLVEALERLPDFPVEIEPESAG [r14_521_TrMRF] | 1.01 ± 0.027 | 0.93 ± 0.062 | 0.716 ± 0.1 |
| SAMRIRIEVETRTGPDGRKYVVVRIRDEKTGEELELVFESREEAEEAAKALAEELKKAGYEIEVEIRPPSAG [r14_263_TrROS_Hall] | 5.23 ± 0.47 | 5.21 ± 0.19 | 5.21 ± 0.2 |
| SAMSAEELAERLRERLKKLAEEEGLEVEITVTVEENEDGSLTVTITVKSEEEAERIKEKLPEGVKVEKKSAG [r14_491_TrROS_Hall] | 1.43 ± 0.054 | 2.14 ± 0.21 | 2.37 ± 0.1 |
| SAMTIKIEVINEKGEKIEITIPVKKEDLEKLKEEIEKELKKLAEEKGEKVKVEIVEVDENGYLKIRVYKSAG [r14_622_TrROS_Hall] | 2.75 ± 0.2 | 2.73 ± 0.21 | 2.54 ± 0.059 |
| SAMTITVVADSAEEAERAARELAERLREALRELGIEGAEIEIKVTVLPAPPPERVLVRDPETDEWKEVPSAG [r14_475_TrROS_Hall] | 0.184 ± 0.14 | 0.981 ± 0.11 | 1.18 ± 0.031 |
| SAMTIVIRLPPPPPPLTAEELAELLGAEVTEIRVERNEDGELVVTITVREDMSEEQRRRLLELLRERAESAG [r14_421_TrROS_Hall] | 4.32 ± 0.07 | 4.02 ± 0.075 | 3.83 ± 0.048 |
| SAMTKLVEFDSEEEYEAAVKAAAAAGESVLARLKDPSGTYTVVEVEVDPETGTVTVKKTEKVPVDGSLGSAG [r14_455_JUSTAS] | 0.622 ± 0.018 | 1.14 ± 0.042 | 1.37 ± 0.027 |

| Sequence | folding stability dG unfold [1] [kcal/mol] | folding stability dG unfold [2] [kcal/mol] | folding stability dG unfold [3] [kcal/mol] |
| --- | --- | --- | --- |
| SAMTLEEAKKKGLVVIRVKIEVTLPNGEKREFERVIVAESLEEALEALREELEREGYKVEIVEIEIEKLSAG [r14_854_TrROS_Hall] | 2.76 ± 0.16 | 2.04 ± 0.21 | 1.51 ± 0.11 |
| SAMTLTVRVKATPEQLKEALEEETGAKVTIEEEEDGVLTITVEVSEEEREKLAEALKKLPGLEIEIEEESAG [r14_521_TrROS_Hall] | 1.94 ± 0.067 | 1.9 ± 0.091 | 1.89 ± 0.026 |
| SAMTPEEIKKKVEELLKELAKELNAEVTSVKVDKETKTITVTVKVKLPNGETKTLTLKFTIDKDGKITFSAG [r14_183_TrROS_Hall] | 3.67 ± 0.12 | 4.32 ± 0.14 | 4.5 ± 0.079 |
| SAMTPEELAARLAEALRREAEEAGLEIVDVRVEYDEETDTVTVEVVVRNKETGELVTRRVEIRSLEELLSAG [r14_409_TrROS_Hall] | 4.52 ± 0.14 | 3.98 ± 0.1 | 3.23 ± 0.059 |
| SAMTVTITLPPSISPEEAKAALEAAFPGEDIQVTTTTDPNAGTLTVTVTFSSPEDAARAAALLAEVRAASAG [r14_443_JUSTAS] | 2.86 ± 0.046 | 4.33 ± 0.077 | 4.68 ± 0.067 |
| SAMVIEIEIPSEELLKKLEELLPPGARIKKVEIVKENGKVKIIVELEPGMSEEEKERIKKKIEELLKEESAG [r14_306_TrROS_Hall] | 4.92 ± 0.46 | > 6 | 3.59 ± 0.4 |
| SAMVLDVSELTKKAIEELKKKNPKPLSPEEIVELGKKVAAEVAEKLGIPLKEIKVEPTGKHPKAVAELPSAG [r14_147_TrMRF] | 0.527 ± 0.096 | 0.391 ± 0.52 | 0.839 ± 0.059 |
| SAMVTIDYETLKELYEAGDPAKVEEILKKAYEEDPNKTITVIVPEDEKYKNLVLEAAKKMGLPITITGPSAG [r14_236_JUSTAS] | 2.46 ± 0.068 | 2.83 ± 0.073 | 3 ± 0.051 |
| SAMYLIKITIYNEETGEKIAELTLEVEEEDLEELLEEIRKKLNLPPGAKIKVEIVPLEPVVLPDGKLLKSAG [r14_297_TrROS_Hall] | 0.724 ± 0.12 | 1.7 ± 0.27 | 2.54 ± 0.2 |
| SAMYTLRTISYDPNTGVRKLELTVDPAHPDRPVPEAVTQAVADAYAAQGWSVTVTRHPDGSVVIDVPVPSAG [r14_865_JUSTAS] | 1.84 ± 0.031 | 1.88 ± 0.022 | 1.86 ± 0.027 |
| SAMYVYRARVEVRGPDGELLAEEEIVAESPEELKVAVLERFGLKESEIVRLEVEPVIPLEEFLELLEKGSAG [r14_852_TrMRF] | 2.05 ± 0.042 | 2.39 ± 0.11 | 2.48 ± 0.068 |
| SAPDAKVEFNPKLVRKGDELLLLVEVKLSPDVDEVVVEIEVTGPDGSPFKVEAVQFPETGTVLVKAVLPASA [r9_159_TrMRF] | 1.33 ± 0.078 | 1.75 ± 0.094 | 2.04 ± 0.061 |
| SAPDVVVVPIKIPPGEMSPSDMIEMIEQAFDQFNWPITPDRIEKLVDKAMKNGDSIWAVIRYLREEGWLSAG [r14_364_TrROS] | 2.63 ± 0.049 | 2.86 ± 0.076 | 3.022 ± 0.021 |
| SAPFQIKEITVNPKDGEAEINFPLENLPPPWMIHIFDKDKGKTQWIPPGGEIEIRAPEGPVKIMIFWRDSAG [r14_134_TrROS] | 1.27 ± 0.12 | 1.16 ± 0.25 | 0.981 ± 0.45 |
| SAPKIKEIKEFDPETKKILIKVETPEGEKEIPIPAGGNMTVEEAIEKVKEFLEKELPEGVELEVEEITISAG [r14_422_TrMRF] | 0.494 ± 0.12 | 1 ± 0.17 | 1.35 ± 0.1 |
| SAPKVISATVTYNPATGKVTVTVTLEDADGPVTVTYTFDGDGNVPVTVYDTRTTKPLGTITVPADQLNLSAG [r14_608_TrMRF] | 1.06 ± 0.08 | 1.14 ± 0.18 | 1.21 ± 0.23 |
| SAPNYPFFVRIKLPGNGQEVEFPIESPEEADEMLDNFANHPHIKDIDIYRPDGEEVEIEIKIPPEALKQSAG [r14_747_TrROS] | -0.622 ± 0.3 | 0.0333 ± 0.26 | 0.119 ± 0.16 |
